# B1: ΦPA3 gp2 (ChmB), purified (natural protein, Pseudomonas phage ΦPA3, UniProt F8SJN3 1-197, looked up)
# chain: MTDVAYPYLETSTLFDNIVKGQILEPDAESPQLSHVLKITDAAGIGHEVTFFQLSILLAILQGNKHELTDNQPHQYLVNQWVLTDLHNIYDEGYVMTSHRVIVDHVEEVATFTGTLVHQKTIRSHPNWQEGFTAPVKEFEFNLENFGIFHQIVFSQCIANLTPELDWVARTFGHSYIFEMEGRNVRVASIQEEGTTE
# B2: gp2 homolog of phage Psa21 (gp3), purified (natural protein, Pseudomonas phage Psa21, UniProt A0A481W4E6 1-229, looked up)
# chain: MNPVYDIFNDIANNMVTVENKEEFLSNTVRLVGASGKEHVLSIAQAQLLLGVLDGSHQFLTDYNPLEFLLFSYQFQDKIKLKYVAVQYQIIYDADDDSIFVSGVTRHPMTVVGHPDYVAGASVPIETFQTTIPNVGLYGGLALVNCIATQSPDFAPVKGSFGGSFIFEFDGGKQSIRRYVPAEIDEPVIHKEELQEALDEAVKKFVPSAAPKVEFNGIKDTSTKTEQEI
# B3: 201Φ2-1 gp2 (ChmB), purified (natural protein, Pseudomonas phage 201Φ2-1, UniProt B3FJX8 1-179, looked up)
# chain: MTLIAKPAVPDTEVLNHIGRDLLLKDEDGSFKLQRHLKILTEEGLVHQVSFAQVDGLLNILDSTRETPPCSPLQYLITHYDLKDLVELGKDGWLVPEYQVVVMHSSKTVRFEGKLTRVGSIDKEFTFALGGFDFIQQLSLARCIASLGKEFEQVIGTFDCTYVFKTGPDGISVSTDIGV
# Biological target: the molecule itself
# Assay: SEC-MALS; 100 μL of purified protein at 5 mg/mL on Superdex 200 Increase 10/300 GL in buffer GF (300 mM NaCl, 1 mM DTT)
row,Protein,stoichiometry N
1,B1,2
2,B2,2
3,B3,2
